Measured values from US12356911B2, “Group of UDP-glycosyltransferase for catalyzing carbohydrate chain elongation and application thereof” (GSYNBIOT (SHANGHAI) CO., LTD, priority 2017, dated 2025).
Residue numbers refer to the chain shown, from its start.

B1: GT29-42: Ginseng UDP-glycosyltransferase, 444 amino acids, SEQ ID NO.: 94 (protein)
chain: MDNQEGRISIALLPFLAHGHISPFFELAKQLAKRNCNVFLCSTPINLSSIKNKDSSASIKLVELHLPSSPDLPPHYHTTNGLPSHLMVPLINAFETAGPTFSEILKTLNPDLLIYDFNPSWAPEIASSHNIPAVYFLTTAAASSSIGLHAFKNPGEKYPFPDFYDNSNNTPEPPSADNMKLLHDFIACFERSCDIILIKSFIELEGKYIDLLSTLSDKTLVPVGPLVQDPMGHNEDPKTEQIINWLDKRAESTVVFVCFGSEYFLSNEELEEVAIGLEISMVNFIWAVRLIEGEKKGVLPEGFVQRVGDRGLVVEGWAPQARILGHSSTGGFVSHCGWSSIMESVKFGVPVIAMARHLDQPLNAKLAAEVGVGMEVMRDENGKYKREAIAEVIRKVVMEKNGEVMRRKARELSEKMKVKGEQEIGRAVEELVQICKKKKQHAQY
modifications: Panax ginseng
B2: GT29-19: Ginseng UDP-glycosyltransferase, 442 amino acids, SEQ ID NO: 116 (protein)
chain: MDNQEGRISIALLPFLAHGHISPFFELAKQLAKRNCNVFLCSTPINLSSIKNKDSSASIKLVELHLPSSPDLPPHYHTTNGLPSHLMVPLINAFETAGPTFSEILKTLNPDLLIYDFNPSWAPEIASSHNIPAVYFLTTAAASSSIGLHAFKNPGEKYPFPDFYDNSNNTPEPPSADNMKLLHDFIACFERSCDIILIKSFIELEGKYIDLLSTLSDKTLVPVGPLVQDPMGHNEDPKTEQIINWLDKRAESTVVFVCFGSEYFLSNEELEEVAIGLEISMVNFIWAVRLIEGEKKGVLPEGFVQRVGDRGLVVEGWAPQARILGHSSTGGFVSHCGWSSITESMKFGVPVIAMARHFDQPLNAKLAAEVGVGMEVVRDENGKYKREDIAGVIRKVVVEKSGEVIRRKARELSEKMKEIGEQLIDRAVEELVQICKKKKDEQ
modifications: misc_feature - GT29-19; Panax ginseng
B3: GT29-23: Ginseng UDP-glycosyltransferase, 442 amino acids, SEQ ID NO: 124 (protein)
chain: MDNQEGRISIALLPFLAHGHISPFFELAKQLAKRNCNVFLCSTPINLSSIKNKDSSASIKLVELHLPSSPDLPPHYHTTNGLPSHLMVPLINAFETAGPTFSEILKTLNPDLLIYDFNPSWAPEIASSHNIPAVYFLTTAAASSSIGLHAFKNPGEKYPFPDFYDNSNNTPEPPSADNMKLLHDFIACFERSCDIILIKSFIELEGKYIDLLSTLSDKTLVPVGPLVQDPMGHNEDPKTEQIINWLDKRAESTVVFVCFGSEYFLSNEELEEVAIGLEISMVNFIWAVRLIEGEKKGVLPEGFVQRVGDRGLVVEGWAPHARILGHSSTGGFVSHCGWSSIAESMKFGVPVIAMARHLDQPLNGKLAAEVGVGMEVVRDENGKYKREGIAEVIRKVVVEKSGEVMRRKARELSEKMKEKGEEEIDRAVEELVQICKKKKDAQ
modifications: misc_feature - GT29-23; Panax ginseng
B4: GT29-20: Ginseng UDP-glycosyltransferase, 442 amino acids, SEQ ID NO: 118 (protein)
chain: MDNQKGRISIALLPFLAHGHISPFFELAKQLAKRNCNVFLCSTPINLSSIKDKDSSASIKLVELHLPSSPDLPPHYHTTNGLPSHLMLPLRNAFETAGPTFSEILKTLNPDLLIYDFNPSWAPEIASSHNIPAVYFLTTAAASSSIGLHAFKNPGEKYPFPDFYDNSNITPEPPSADNMKLLHDFIACFERSCDIILIKSFRELEGKYIDLLSTLSDKTLVPVGPLVQDPMGHNEDPKTEQIINWLDKRAESTVVFVCFGSEYFLSNEELEEVAIGLEISTVNFIWAVRLIEGEKKGILPEGFVQRAGDRGLVVEGWAPQARILGHSSTGGFVSHCGWSSIAESMKFGVPVIAMARHLDQPLNGKLAAEVGVGMEVVRDENGKYKREGIAEVIRKVVVEKSGEVIRRKARELSEKMKEKGEQEIDRALEELVQICKKKKDEQ
modifications: misc_feature - GT29-20; Panax ginseng
B5: GT29-22: Ginseng UDP-glycosyltransferase, 442 amino acids, SEQ ID NO: 122 (protein)
chain: B4 chain with A307V, S344I
modifications: misc_feature - GT29-22; Panax ginseng
B6: GT29-21: Ginseng UDP-glycosyltransferase, 442 amino acids, SEQ ID NO: 120 (protein)
chain: B4 chain with H18N, A307V, T329I
modifications: misc_feature - GT29-21; Panax ginseng
B7: GT29-37: Ginseng UDP-glycosyltransferase, 442 amino acids, SEQ ID NO.: 92 (protein)
chain: B4 chain with K5E, D52N, L88V, R91I, A307V
modifications: Panax ginseng
B8: GT29-36: Ginseng UDP-glycosyltransferase, 442 amino acids, SEQ ID NO.: 90 (protein)
chain: B3 chain with E5K, N52D, V88L, I91R, N169I, I202R, H320Q
modifications: Panax ginseng
B9: GT29-13: Ginseng UDP-glycosyltransferase, 446 amino acids, SEQ ID NO: 22 (protein)
chain: MDNQKGRISIVMLPFLAHGHISPFFELAKHLSKRNCNIFLCSTPINLSSIKNRISDKDSSASIKLVELHLPSSPDLPPHYHTTNGLPSHLMVPLRNAFETAAPTFSEILKTLNPDLLIYDFNPSWAPEIASSHNIPAVCFIIGGAASFSMSLHSFKNPGEKYPFLDFDDNSNITPEPPSADNMKLLLDFMTCFERSCDIILIKSFRELEGKYFDFYSTLSDKTLVPVGPLVQDPMGHNEDPKTEQFINWLDKRAESTVVFVCFGSEYFLSNEELEEVAIGLEISMVNFIWAVRLIEGEKKGVLPEGFVQRVGDRGLVVEGWAPQARILGHSSTGGFVSHCGWSSITESMKFGVPVIAMARHFDQPLNAKLAAEVGVVMEVVRDENGKYKREDIAGVIRKVVVEKSGEVIRRKARELSEKMKEIGEQLIDRAVEELVQICKKKKDEQ
modifications: misc_feature - GT29-13; Panax ginseng
B10: GT29-18: Ginseng UDP-glycosyltransferase, 446 amino acids, SEQ ID NO: 26 (protein)
chain: B9 chain with V377G, I409M, I423K, Q426E, L427E, E445A
modifications: misc_feature - GT29-18; Panax ginseng
B11: GT29-17: Ginseng UDP-glycosyltransferase, 442 amino acids, SEQ ID NO: 24 (protein)
chain: MDNQEGRISIALLPFLAHGHISPFFELAKQLAKRNCNVFLCSTPINLSSIKNKDSSASIKLVELHLPSSPDLPPHYHTTNGLPSHLMVPLINAFETAGPTFSEILKTLNPDLLIYDFNPSWAPEIASSHNIPAVCFIIGGAASFSMSLHSFKNPGEKYPFLDFDDNSNITPEPPSADNMKLLLDFMTCFERSCDIILIKSFRELEGKYFDFYSTLSDKTLVPVGPLVQDPMGHNEDPKTEQFINWLDKRAESTVVFVCFGSEYFLSNEELEEVAIGLEISMVNFIWAVRLIEGEKKGVLPEGFVQRVGDRGLVVEGWAPQARILGHSSTGGFVSHCGWSSITESMKFGVPVIAMARHFDQPLNAKLAAEVGVGMEVVRDENGKYKREDIAGVIRKVVVEKSGEVIRRKARELSEKMKEIGEQLIDRAVEELVQICKKKKDEQ
modifications: misc_feature - GT29-17; Panax ginseng

Assay: In vitro transglycosylation at C-3, Rd as glycosyl acceptor, UDP-xylose as donor
Format: biochemical
Settings: crude enzyme (E. coli lysate supernatant); TLC, FIG. 14
In the case of B1, the “product formation from Rd and UDP-xylose (replacement of second glucose at C-3 with xylose)” value (“product formation from Rd and UDP-xylose” for short) is reported as “can all catalyze the replacement of the second glucose at C-3 position of Rd with xylose”.
With B2 the “product formation from Rd and UDP-xylose” value was “can all catalyze the replacement of the second glucose at C-3 position of Rd with xylose”.
In the case of B3, the “product formation from Rd and UDP-xylose” value is reported as “can all catalyze the replacement of the second glucose at C-3 position of Rd with xylose”.
For B4, the “product formation from Rd and UDP-xylose” value was “can all catalyze the replacement of the second glucose at C-3 position of Rd with xylose”.
For B5, the “product formation from Rd and UDP-xylose” value was “can all catalyze the replacement of the second glucose at C-3 position of Rd with xylose”.
In the case of B6, the “product formation from Rd and UDP-xylose” value is reported as “can all catalyze the replacement of the second glucose at C-3 position of Rd with xylose”.
For B7, the “product formation from Rd and UDP-xylose” value was “can all catalyze the replacement of the second glucose at C-3 position of Rd with xylose”.
With B8 the “product formation from Rd and UDP-xylose” value was “can all catalyze the replacement of the second glucose at C-3 position of Rd with xylose”.

Assay: In vitro transglycosylation at C-3, Rh2 as glycosyl acceptor, UDP-glucose as donor
Format: biochemical
Settings: crude enzyme (E. coli lysate supernatant); TLC, FIG. 13, FIG. 15
Description: Cell lysate of recombinant E. coli with empty vector pET28a was used as a control.
With B1 the “product formation from Rh2 and UDP-glucose (Rg3)” value (shortened to “product formation … (Rg3)”) was “can all catalyze the extension of a glucosyl at the C-3 glycosyl of Rh2 to generate Rg3”.
With B2 the “product formation … (Rg3)” value was “can all catalyze the extension of a glucosyl at the C-3 glycosyl of Rh2 to generate Rg3”.
For B3, the “product formation … (Rg3)” value was “can all catalyze the extension of a glucosyl at the C-3 glycosyl of Rh2 to generate Rg3”.
For B4, the “product formation … (Rg3)” value was “can all catalyze the extension of a glucosyl at the C-3 glycosyl of Rh2 to generate Rg3”.
With B5 the “product formation … (Rg3)” value was “can all catalyze the extension of a glucosyl at the C-3 glycosyl of Rh2 to generate Rg3”.
In the case of B6, the “product formation … (Rg3)” value is reported as “can all catalyze the extension of a glucosyl at the C-3 glycosyl of Rh2 to generate Rg3”.
In the case of B7, the “product formation … (Rg3)” value is reported as “can all catalyze the extension of a glucosyl at the C-3 glycosyl of Rh2 to generate Rg3”.
With B8 the “product formation … (Rg3)” value was “can all catalyze the extension of a glucosyl at the C-3 glycosyl of Rh2 to generate Rg3”.

Assay: In vitro transglycosylation at C-6, Rg1 as glycosyl acceptor, UDP-xylose as donor
Format: biochemical
Settings: crude enzyme (E. coli lysate supernatant); TLC and HPLC, FIG. 7-9
With B9 the “product formation from Rg1 and UDP-xylose (notoginsenoside R1)” value (“product formation … (notoginsenoside R1)” for short) was “can catalyze the formation of Notoginsenoside RI”.
For B10, the “product formation … (notoginsenoside R1)” value was “can catalyze the formation of Notoginsenoside RI”.
With B11 the “product formation … (notoginsenoside R1)” value was “can catalyze the formation of Notoginsenoside RI”.
